Data as given in article PMC12423313, “Protein-based tools for the detection and characterisation of Oropouche virus infection” (EMBO Molecular Medicine, 2025).

B2: OROV nucleoprotein (N), recombinant, strain BeAn19991 (natural protein, Oropouche virus strain BeAn19991)
chain: MSEFIFNDVPQRTTSTFDPEAAYVAFEARYGQVLNAGVVRVFFLNQKKAKDVLRKTSRPMVDLTFGGVQFAMVNNHFPQFQSNPVPDNGLTLHRLSGYLARWAFTQMRSPIKQAEFRATVVVPLAEVKGCTWNDGDAMYLGFAAGAEMFLQTFTFFPLVIEMHRVLKDGMDVNFMKKVLRQRYGQKTAEQWMREEIVAVRAAFEAVGTLAWARTGFSPAARDFLRQFGIDI

Experiments:
[1] = molecular target: B2; assay: ELISA; details: both partners purified
[2] = molecular target: T1, nanobody-Fc fusion FcNpD2, HRP-conjugated (llama); assay: ELISA
T1 construct: as the VHH of m11; also called OROV FcNpD2; not shown: Fc (human IgG1 hinge and Fc domains 2 and 3), C-terminal, kept

[3] = molecular target: T2, biotinylated nanobody-Fc fusion bFcNpD2 (C-terminal AviTag) (llama); assay: ELISA
T2 construct: as the VHH of m11; also called OROV FcNpD2 BAP; not shown: Fc (human IgG1 hinge and Fc domains 2 and 3), C-terminal, kept; AviTag, C-terminal, kept

[4] = molecular target: B2; assay: BLI; streptavidin biosensors loaded with biotinylated nanobodies, 1 µM OROV N with or without 25 µM competitor nanobody, 300 s association, 30 °C, PBS-T, Octet Red; details: both partners purified
[5] = molecular target: T3, OROV Gc spike region (residues 482-894 of the M polyprotein), recombinant, strain BeAn19991 (Oropouche virus strain BeAn19991, UniProt A0A0B5CLT0); assay: ELISA; […], biotinylated nanobody 2 µg/mL, […], room temperature; details: both partners purified
T3 construct: Gc spike region (head and stalk domains) of the M polyprotein of Oropouche virus strain BeAn19991, GenBank AJE24679.1, residues 482-894; also called Gc spike domain

[6] = molecular target: T3, OROV Gc spike region (residues 482-894 …); assay: ELISA; details: both partners purified

B1: nanobody NpD2, His8-tagged (VHH)
VHH: QVQLVESGGGLAQPGGSLRLSCAASGFTLDYYSIGWFRQAPGKEREGVSCISSGGSTYYADSVKGRFAISSDNAKNTVYLQMNSLKPEDTAVYYCAADIMSCPGKYSAVADYWGQGTQVIVDS
notes: as the VHH of m11; also called OROV Np Nb D2 H8; not shown: His8, C-terminal, kept
[1]
  binding result: binds

## B2
[2]; both partners purified
  binding result: binds
[3]; both partners purified
  binding result: binds

B3: OROV nucleoprotein (N) in serum of patients with acute OROV infection (natural protein)
chain: MSEFIFNDVPQRTTSTFDPEAAYVAFEARYGQVLNAGVVRVFFLNQKKAKDVLRKTSRPMVDLTFGGVQFAMVNNHFPQFQSNPVPDNGLTLHRLSGYLARWAFTQMRSPIKQAEFRATVVVPLAEVKGCTWNDGDAMYLGFAAGAEMFLQTFTFFPLVIEMHRVLKDGMDVNFMKKVLRQRYGQKTAEQWMREEIVAVRAAFEAVGTLAWARTGFSPAARDFLRQFGIDI
notes: N protein of the Oropouche virus infecting the patients; also called OROV N protein
[2]; one partner purified
  binding result: binds
[3]; one partner purified
  binding result: binds

B4: OROV nucleoprotein (N) of the 2023-4 epidemic isolate AM0088, native (natural protein)
chain: MSEFIFNDVPQRTTSTFDPEAAYVAFEARYGQVLNAGVVRVFFLNQKKAKDVLRKTSRPMVDLTFGGVQFAMVNNHFPQFQSNPVPDNGLTLHRLSGYLARWAFTQMRSPIKQAEFRATVVVPLAEVKGCTWNDGDAMYLGFAAGAEMFLQTFTFFPLVIEMHRVLKDGMDVNFMKKVLRQRYGQKTAEQWMREEIVAVRAAFEAVGTLAWARTGFSPAARDFLRQFGIDI
notes: also called OROV AM0088 N
[2]; one partner purified
  binding result: binds
[3]; one partner purified
  binding result: binds

B5: OROV nucleoprotein (N) of strain TRVL, native, in virus stock (natural protein)
chain: MSEFIFNDVPQRTTSTFDPEAAYVAFEARYGQVLNAGVVRVFFLNQKKAKDVLRKTSRPMVDLTFGGVQFAMVNNHFPQFQSNPVPDNGLTLHRLSGYLARWAFTQMRSPIKQAEFRATVVVPLAEVKGCTWNDGDAMYLGFAAGAEMFLQTFTFFPLVIEMHRVLKDGMDVNFMKKVLRQRYGQKTAEQWMREEIVAVRAAFEAVGTLAWARTGFSPAARDFLRQFGIDI
notes: N protein of Oropouche virus strain TRVL (Anderson et al, 1961); also called OROV TRVL
[2]; one partner purified
  binding result: binds
[3]; one partner purified
  binding result: binds

B6: OROV nucleoprotein (N) of strain BeAn19991, native, in virus stocks and infected cells (natural protein, Oropouche virus strain BeAn19991)
chain: MSEFIFNDVPQRTTSTFDPEAAYVAFEARYGQVLNAGVVRVFFLNQKKAKDVLRKTSRPMVDLTFGGVQFAMVNNHFPQFQSNPVPDNGLTLHRLSGYLARWAFTQMRSPIKQAEFRATVVVPLAEVKGCTWNDGDAMYLGFAAGAEMFLQTFTFFPLVIEMHRVLKDGMDVNFMKKVLRQRYGQKTAEQWMREEIVAVRAAFEAVGTLAWARTGFSPAARDFLRQFGIDI
notes: N protein of Oropouche virus strain BeAn19991, GenBank AJE24680.1, as made by the virus; also called OROV BeAn19991
[2]; one partner purified
  binding result: binds
[3]; one partner purified
  binding result: binds

B7: nanobody NpE2, His8-tagged (VHH)
VHH: QVQLVESGGGLVQAGDSLRLSCVASGFTPNPAVSWVRQAPGKDLEWVSSIYHGDITSYATSVKGRFTISRDNAKNTVYLQMNSLKPEDSAIYYCTKGDSRGQGTQVTVSS
notes: as the VHH of m12; also called OROV Np Nb E2 H8; not shown: His8, C-terminal, kept
[1]
  binding result: binds

B8: biotinylated nanobody NpE2 (AviTag-His9) (VHH)
VHH: QVQLVESGGGLVQAGDSLRLSCVASGFTPNPAVSWVRQAPGKDLEWVSSIYHGDITSYATSVKGRFTISRDNAKNTVYLQMNSLKPEDSAIYYCTKGDSRGQGTQVTVSS
notes: VHH NpE2 from an immunised llama; also called bNpE2; OROV Np Nb E2 BAP H9; not shown: AviTag, C-terminal, kept
[4]
  binding result: binds

B9: biotinylated nanobody SpA7 (AviTag-His9) (VHH)
VHH: QVQLVESGGGSVQAGGSLRLSCAASGRTFSAYVMGWFRQAPGKEREFVAAIRRSYGSTYYADSVKGRFTISTDNAKNTVTLQMNSLKPEDTAIYYCAAIRQGGGWGSSAVDYWGQGTQVTVAS
notes: VHH A7 against Gc spike from an immunised llama; also called OROV Gc Spike Nb A7 BAP H9; not shown: AviTag, C-terminal, kept
[5]
  binding result: binds

B10: biotinylated nanobody SpE8 (AviTag-His9) (VHH)
VHH: QVQLVESGGGFVRAGDSLRLSCAASGRAFSTYAMGWFRQAPGKEREFVAGITLGSRITQYADSVKGRFTISRDNARQTMYLQMNNLQPEDTADYYCAARGQGSPPLRNRWSADDYNYWGQGLQVTVSS
notes: VHH SpE8 from an immunised llama; also called bSpE8; OROV Gc Spike Nb E8 BAP H9; not shown: AviTag, C-terminal, kept
[5]
  binding result: binds

B11: nanobody SpE8, His8-tagged (VHH)
VHH: QVQLVESGGGFVRAGDSLRLSCAASGRAFSTYAMGWFRQAPGKEREFVAGITLGSRITQYADSVKGRFTISRDNARQTMYLQMNNLQPEDTADYYCAARGQGSPPLRNRWSADDYNYWGQGLQVTVSS
notes: as the VHH of m21; also called OROV Gc Spike Nb E8 H8; not shown: His8, C-terminal, kept
[6]
  binding result: binds

B12: biotinylated nanobody SpA9 (AviTag-His9) (VHH)
VHH: QVQLVESGGGLVQPGGSLTLSCAASGFTFSTLAMAWFRQAPGKERESVAVINRSGGIVNYADSVKGRFTITRDNAKNMVYLQMNSLKPEDTAVYYCAARTGYAYVRVSDYDSWGQGTQVTVSS
notes: VHH A9 against Gc spike from an immunised llama; also called OROV Gc Spike Nb A9 BAP H9; not shown: AviTag, C-terminal, kept
[5]
  binding result: binds

B13: nanobody NpG1, His8-tagged (VHH)
VHH: QVQLVESGGGLVQPGDSLRLSCAASGRTFTDYPMAWFRQAPGKEREFVTAINWSGGATYYADSVKGRFTISRDNTRNTVFLQMNSLKPEDTAVYYCAGGSGRLSYNMDKEYIYWGQGIQVTVSS
notes: as the VHH of m15; also called OROV Np Nb G1 H8; not shown: His8, C-terminal, kept
[1]
  binding result: binds

B14: biotinylated nanobody NpG1 (AviTag-His9) (VHH)
VHH: QVQLVESGGGLVQPGDSLRLSCAASGRTFTDYPMAWFRQAPGKEREFVTAINWSGGATYYADSVKGRFTISRDNTRNTVFLQMNSLKPEDTAVYYCAGGSGRLSYNMDKEYIYWGQGIQVTVSS
notes: VHH NpG1 from an immunised llama; also called bNpG1; OROV Np Nb G1 BAP H9; not shown: AviTag, C-terminal, kept
[4]
  binding result: binds

B15: nanobody NpE3, His8-tagged (VHH)
VHH: QVQLVESGGGLVRPGGSLRLSCAASGFTFSNAYMTWIRQAPGKDLEWVSSIYYGDMTSYATSVKGRFTISRDNAKNTLYLQMNNLKPEDSAIYYCTKGDERGQGTQVTVSS
notes: as the VHH of m13; also called OROV Np Nb E3 H8; not shown: His8, C-terminal, kept
[1]
  binding result: binds

B16: biotinylated nanobody SpC6 (AviTag-His9) (VHH)
VHH: QVQLVESGGGSVQAGGSLRLSCAASGRTFSRYAMGWLRQAPGKEREFVAAITWSGGNTYYADSVKGRFTITRDDAKNTVYLQINNPKPEDTAVYYCAAGTQTGRIRDKGPSYWGQGTQVTVSS
notes: VHH SpC6 from an immunised llama; also called bSpC6; OROV Gc Spike Nb C6 BAP H9; not shown: AviTag, C-terminal, kept
[5]
  binding result: binds

B17: nanobody SpC6, His8-tagged (VHH)
VHH: QVQLVESGGGSVQAGGSLRLSCAASGRTFSRYAMGWLRQAPGKEREFVAAITWSGGNTYYADSVKGRFTITRDDAKNTVYLQINNPKPEDTAVYYCAAGTQTGRIRDKGPSYWGQGTQVTVSS
notes: as the VHH of m19; also called OROV Gc Spike Nb C6 H8; not shown: His8, C-terminal, kept
[6]
  binding result: binds

B18: nanobody NpA2, His8-tagged (VHH)
VHH: QVQLVESGGGLVQPGGSVRLSCAASGGIFSFNAMAWYRQAPGKQRDIVALIANDGNTNYADSVKGRFTISRDNAKNTVYLQMNSLQPEDTAVYYCSALRRGAQDWGQGTQVTVSS
notes: as the VHH of m10; also called OROV Np Nb A2 H8; not shown: His8, C-terminal, kept
[1]
  binding result: binds

B19: nanobody SpC7, His8-tagged (VHH)
VHH: QVQLVESGGGLVQAGGSLRLSCAASGRTFSPNAMGWFRQAPGKEREFVSAISWSGGSTTYADSVKGRFTISRDNAKNTVSLQMNSLKPEDTAVYYCAADLEGMVVADRIWGQGTQVTVSS
notes: as the VHH of m20; also called OROV Gc Spike Nb C7 H8; not shown: His8, C-terminal, kept
[6]
  binding result: binds

B20: biotinylated nanobody SpB6 (AviTag-His9) (VHH)
VHH: QVQLVESGGGLVQPGDSLRLSCAASGRTFSNYAMGWFRQAPGKEREKVAALSRSGTSTYYLDRVKGRFTISRDNTKNMVYLQMNSLEPEDTAVYYCAADPLFQNAAYHYSGQGTQVTVST
notes: VHH SpB6 from an immunised llama; also called bSpB6; OROV Gc Spike Nb B6 BAP H9; not shown: AviTag, C-terminal, kept
[5]
  binding result: binds

B21: biotinylated nanobody NpF2 (AviTag-His9) (VHH)
VHH: QVQLVESGGGAVQAGGSLRLSCAASGRTFSSFPMGWFRQAPGKEREFIAAINWSGASKYYADSVKGRFAISRDNAKNTVYLQMNSLTPEDTAVYSCAAGSGRYGYTFSKEYTYWGQGTQVIVAS
notes: VHH NpF2 from an immunised llama; also called bNpF2; OROV Np Nb F2 BAP H9; not shown: AviTag, C-terminal, kept
[4]
  binding result: binds
